T1: mouse recombinant TGFbR2-Fc protein (mouse, UniProt Q62312-1 24-184, limits assumed)
T1 construct: also called mouse TGFbR2; not shown: Fc part of the fusion protein
T1 sequence (looked up): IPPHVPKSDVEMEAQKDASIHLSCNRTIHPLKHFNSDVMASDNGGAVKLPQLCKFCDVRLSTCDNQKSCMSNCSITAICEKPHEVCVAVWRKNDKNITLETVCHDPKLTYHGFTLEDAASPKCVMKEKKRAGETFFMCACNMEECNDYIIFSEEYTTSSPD


What was measured:
hTGFβR2-Fc [1] = molecular target: T2, hTGFβR2-Fc (human, UniProt P37173 23-159); assay: ELISA, human recombinant TGFbR2-Fc as capture, mouse CAR-T supernatant, anti-flag HRP detection
T2 construct: Bought (RnD Systems); also called TGFbR2-Fc; human recombinant TGFbR2-Fc protein; not shown: Fc part of the bought fusion protein
T2 sequence (P37173 23-159 limits assumed): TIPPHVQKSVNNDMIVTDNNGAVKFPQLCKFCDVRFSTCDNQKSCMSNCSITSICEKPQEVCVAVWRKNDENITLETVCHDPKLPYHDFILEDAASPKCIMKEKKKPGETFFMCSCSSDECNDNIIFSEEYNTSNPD
Method: (§1) Supernatant from TGF-β modulating CAR-T cells were assayed by ELISA to detect anti-TGF-β and anti-TGFβR2 antibodies. Maxisorp 96 well plates were coated with recombinant human TGF-β […] or hTGFβR2-Fc (0.1 mg/ml; RnD System) in 100 μl coating buffer overnight at 4° C. Plates were washed with 1× wash buffer and blocked for 1 hour with reagent diluent at room temperature. CAR-T supernatant, recombinant TGFβR2-flag, or recombinant TGF-3-flag antibody was added and incubated for 2 hours at room temperature.
(§2) After another washing step, HRP-conjugated flag-tag antibody was added and incubated for 30 minutes at room temperature. Plates were washed and TMB substrate was added for 10-20 minutes. The reaction was stopped using Stop reagent and plates were read at 450 nm using a Pherastar Plate reader. ELISA using coated TGF-b detected high levels of TGF-b scFv VH-VL1 and TGF-b scFv VH-VL2 as compared to TGF-b scFv VL-VH using anti-flag tag HRP antibodies for binder detection (FIG. 3A). ELISA using coated TGFbR2-Fc detected high levels of TGFbR2 scFv VH-VL, TGFbR2 scFv VL-VH and hTGFbR2 VH1 from human CAR-T but was unable to detect mTGFbR2 VH1 (FIG. 3B). […]
(§3) Supernatant was harvested two days after transduction and frozen at −80′C until used for ELISA. […] Binding was detected using anti-flag HRP antibodies and the respective substrate. […]

[2] = molecular target: T1, mouse recombinant TGFbR2-Fc protein; assay: ELISA, mouse recombinant TGFbR2-Fc as capture, mouse CAR-T supernatant, anti-flag HRP detection
Method: as §1
(§4) After another washing step, HRP-conjugated flag-tag antibody was added and incubated for 30 minutes at room temperature. Plates were washed and TMB substrate was added for 10-20 minutes. The reaction was stopped using Stop reagent and plates were read at 450 nm using a Pherastar Plate reader. ELISA using coated TGF-b detected high levels of TGF-b scFv VH-VL1 and TGF-b scFv VH-VL2 as compared to TGF-b scFv VL-VH using anti-flag tag HRP antibodies for binder detection (FIG. 3A). ELISA using coated TGFbR2-Fc detected high levels of TGFbR2 scFv VH-VL, TGFbR2 scFv VL-VH and hTGFbR2 VH1 from human CAR-T but was unable to detect mTGFbR2 VH1 (FIG. 3B). TGF-β binders and TGFβR2 binders were secreted by TGF-β modulating CAR-T cells and bind to their cognate antigen.
Supernatant was harvested two days after transduction and frozen at −80′C until used for ELISA. ELISA was performed as described in Example 3. Human recombinant TGFbR2-Fc protein was used for capturing binders against human TGFbR2 and mouse recombinant TGFbR2-Fc protein was used for probing binding of TGFbR2 binders to mouse TGFbR2. Binding was detected using anti-flag HRP antibodies and the respective substrate. […] None of the binders from the tested supernatants bound to mouse TGFbR2 confirming specificity for human TGFBR2.

hTGFβR2-Fc [3] = molecular target: T2, hTGFβR2-Fc; assay: ELISA, plate coated with hTGFβR2-Fc, human CAR-T supernatant, anti-flag HRP detection
Method: as §1, §4

hTGFβR2-Fc [4] = molecular target: T2, hTGFβR2-Fc; assay: ELISA (figure legend)
Method: as §1, §2, §3

hTGFβR2-Fc [5] = molecular target: T2, hTGFβR2-Fc; assay: ELISA, plate coated with hTGFβR2-Fc, CAR-T supernatant, anti-flag HRP detection
Method: as §1, §4

| binding result [2] | Binder | also measured |
| --- | --- | --- |
| no binding | hTGFbR2 VH3 G4S dimer (VHH, It is built here from its name (VH3 - G4S - VH3); Flag-tagged; also called hTGFbR2-VH3 dimer) EVQLLESGGGLVQPGGSLRLSCAASGFTFGTDQMWWVRQAPGKGLEFVSRIDSPGGRTYYANSVKGRFTISRDNSKNTLYLQMNSLRAEDTAVYYCAKRQPAGVSGKYVDYWGQGTLVTVSSGGGGSEVQLLESGGGLVQPGGSLRLSCAASGFTFGTDQMWWVRQAPGKGLEFVSRIDSPGGRTYYANSVKGRFTISRDNSKNTLYLQMNSLRAEDTAVYYCAKRQPAGVSGKYVDYWGQGTLVTVSS | – |
| no binding | hTGFbR2 scFv VH-VL G4S dimer (scFv, Built here from its name (scFv - G4S - scFv); Flag-tagged; also called TGFbR2 scFv VH-VL dimer) QLQVQESGPGLVKPSETLSLTCTVSGGSISNSYFSWGWIRQPPGKGLEWIGSFYYGEKTYYNPSLKSRATISIDTSKSQFSLKLSSVTAADTAVYYCPRGPTMIRGVIDSWGQGTLVTVSSGGGGSGGGGSGGGGSEIVLTQSPATLSLSPGERATLSCRASQSVRSYLAWYQQKPGQAPRLLIYDASNRATGIPARFSGSGSGTDFTLTISSLEPEDFAVYYCQQRSNWPPTFGQGTKVEIKGGGGSQLQVQESGPGLVKPSETLSLTCTVSGGSISNSYFSWGWIRQPPGKGLEWIGSFYYGEKTYYNPSLKSRATISIDTSKSQFSLKLSSVTAADTAVYYCPRGPTMIRGVIDSWGQGTLVTVSSGGGGSGGGGSGGGGSEIVLTQSPATLSLSPGERATLSCRASQSVRSYLAWYQQKPGQAPRLLIYDASNRATGIPARFSGSGSGTDFTLTISSLEPEDFAVYYCQQRSNWPPTFGQGTKVEIK | – |

Continued, binder first:

| Binder | binding result [2] | also measured |
| --- | --- | --- |
| TGFbR2 scFv VH-VL (scFv, Secreted into CAR-T cell supernatant; Detected with anti-flag HRP; also called hTGFbR2 scFv VH-VL monomer; TGFbR2 scFv VH-VL monomer) scFv: QLQVQESGPGLVKPSETLSLTCTVSGGSISNSYFSWGWIRQPPGKGLEWIGSFYYGEKTYYNPSLKSRATISIDTSKSQFSLKLSSVTAADTAVYYCPRGPTMIRGVIDSWGQGTLVTVSSGGGGSGGGGSGGGGSEIVLTQSPATLSLSPGERATLSCRASQSVRSYLAWYQQKPGQAPRLLIYDASNRATGIPARFSGSGSGTDFTLTISSLEPEDFAVYYCQQRSNWPPTFGQGTKVEIK | no binding | binding result (hTGFβR2-Fc [1]): binds |
| hTGFbR2 VH1 (VHH, Single domain VH; Secreted into CAR-T cell supernatant; Detected with anti-flag HRP) VHH: EVQLLESGGGLVQPGGSLRLSCAASGFTFGTEQMWWVRQAPGKGLEFVSRIDSPGGRTYYADSVKGRFTISRDNSKNTLYLQMNSLRAEDTAVYYCAKRRPTGVSGTFYDYWGQGTLVTVSS | – | binding result (hTGFβR2-Fc [3]): binds |
| hTGFbR2 VH3 monomer (VHH, Flag-tagged) VHH: EVQLLESGGGLVQPGGSLRLSCAASGFTFGTDQMWWVRQAPGKGLEFVSRIDSPGGRTYYANSVKGRFTISRDNSKNTLYLQMNSLRAEDTAVYYCAKRQPAGVSGKYVDYWGQGTLVTVSS | no binding | binding result (hTGFβR2-Fc [4]): binds |
| hTGFbR2 VH2 G4S dimer (VHH, Flag-tagged; also called hTGFbR2-VH2 dimer) EVQLLESGGGLVQPGGSLRLSCAASGSTFTEYRMWWVRQAPGKGLEWVSAIEPIGHRTYYANSVRGRFTISRDNSKNTLYLQMNSLRAEDTAVYYCAKQAPGEKWARRWDLDYWGQGTLVTVSSGGGGSEVQLLESGGGLVQPGGSLRLSCAASGSTFTEYRMWWVRQAPGKGLEWVSAIEPIGHRTYYANSVRGRFTISRDNSKNTLYLQMNSLRAEDTAVYYCAKQAPGEKWARRWDLDYWGQGTLVTVSS | no binding | – |
| hTGFbR2 VH2 monomer (VHH, Flag-tagged (anti-flag HRP detection); also called TGFbR2 hVH2) VHH: EVQLLESGGGLVQPGGSLRLSCAASGSTFTEYRMWWVRQAPGKGLEWVSAIEPIGHRTYYANSVRGRFTISRDNSKNTLYLQMNSLRAEDTAVYYCAKQAPGEKWARRWDLDYWGQGTLVTVSS | no binding | binding result (hTGFβR2-Fc [4]): binds |
| mTGFbR2 VH1 (VHH, Single domain VH expressed in human CAR-T cells; Flag-tagged) VHH: EVQLLESGGGLVQPGGSLRLSCAASGFTFTTYGMGWVRQAPGKGLEWVSWIEKTGNKTYYADSVKGRFTISRDNSKNTLYLQMNSLRAEDTAVYYCAKARHIKVRSRDFDYWGQGTLVTVSS | – | binding result (hTGFβR2-Fc [5]): no binding |
| TGFbR2 scFv VL-VH (scFv, Secreted into CAR-T cell supernatant; Detected with anti-flag HRP) scFv: EIVLTQSPATLSLSPGERATLSCRASQSVRSYLAWYQQKPGQAPRLLIYDASNRATGIPARFSGSGSGTDFTLTISSLEPEDFAVYYCQQRSNWPPTFGQGTKVEIKGGGGSGGGGSGGGGSQLQVQESGPGLVKPSETLSLTCTVSGGSISNSYFSWGWIRQPPGKGLEWIGSFYYGEKTYYNPSLKSRATISIDTSKSQFSLKLSSVTAADTAVYYCPRGPTMIRGVIDSWGQGTLVTVSS | – | binding result (hTGFβR2-Fc [3]): binds |

— patent US20240131158A1 (Takeda / Millennium, published 2024)
